# Target: CsrA (Salmonella Typhimurium) (UniProt P69916)
# Assay: SEC; S75 Superdex column after Ni2+-NTA; SEC buffer 25 mM Tris, 150 mM NaCl, 10% glycerol, 1 mM DTT, pH 7.5; oligomeric state judged from the elution profile
# Chain of CsrA, P69916 1-61 (natural protein; other documents disagree on this pair) (P69916 whole entry): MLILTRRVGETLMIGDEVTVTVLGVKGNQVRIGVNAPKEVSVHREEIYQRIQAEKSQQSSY
substance,measurement,value
"CsrA, P69916 1-61 (natural protein; other documents disagree on this pair)",stoichiometry N,2
